What all share (assay): SPR, antibody captured, C2 as analyte;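 note: biacore at 37 °C, anti-C2 mAbs held by immobilised goat anti-human IgG, C2 alanine or serine mutants injected, double-referenced sensorgrams fitted to a 1:1 kinetic or steady-state model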
In one test the target is T1, human C2 E267A (human, UniProt P06681 21-752).
T1 sequence: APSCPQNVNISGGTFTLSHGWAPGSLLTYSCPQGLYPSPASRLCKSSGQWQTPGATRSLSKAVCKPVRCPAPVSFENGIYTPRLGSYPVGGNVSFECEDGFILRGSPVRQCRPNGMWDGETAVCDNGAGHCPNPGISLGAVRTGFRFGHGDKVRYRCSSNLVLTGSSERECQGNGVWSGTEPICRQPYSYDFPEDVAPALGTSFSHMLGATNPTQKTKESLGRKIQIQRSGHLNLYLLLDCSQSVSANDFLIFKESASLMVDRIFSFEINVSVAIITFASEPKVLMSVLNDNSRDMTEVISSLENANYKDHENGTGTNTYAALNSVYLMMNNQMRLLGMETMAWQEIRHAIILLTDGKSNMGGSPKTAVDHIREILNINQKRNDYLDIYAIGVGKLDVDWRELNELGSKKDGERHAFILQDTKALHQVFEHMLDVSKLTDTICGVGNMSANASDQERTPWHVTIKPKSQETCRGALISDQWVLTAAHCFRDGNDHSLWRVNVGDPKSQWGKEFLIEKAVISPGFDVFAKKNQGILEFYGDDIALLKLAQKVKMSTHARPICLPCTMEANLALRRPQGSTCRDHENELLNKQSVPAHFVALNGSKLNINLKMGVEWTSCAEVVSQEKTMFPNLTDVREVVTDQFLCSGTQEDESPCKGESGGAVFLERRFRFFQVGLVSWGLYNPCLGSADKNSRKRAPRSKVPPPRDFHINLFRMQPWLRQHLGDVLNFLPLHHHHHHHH

The target in another test is T2, human C2 T442A (human, UniProt P06681 21-752).
T2 sequence: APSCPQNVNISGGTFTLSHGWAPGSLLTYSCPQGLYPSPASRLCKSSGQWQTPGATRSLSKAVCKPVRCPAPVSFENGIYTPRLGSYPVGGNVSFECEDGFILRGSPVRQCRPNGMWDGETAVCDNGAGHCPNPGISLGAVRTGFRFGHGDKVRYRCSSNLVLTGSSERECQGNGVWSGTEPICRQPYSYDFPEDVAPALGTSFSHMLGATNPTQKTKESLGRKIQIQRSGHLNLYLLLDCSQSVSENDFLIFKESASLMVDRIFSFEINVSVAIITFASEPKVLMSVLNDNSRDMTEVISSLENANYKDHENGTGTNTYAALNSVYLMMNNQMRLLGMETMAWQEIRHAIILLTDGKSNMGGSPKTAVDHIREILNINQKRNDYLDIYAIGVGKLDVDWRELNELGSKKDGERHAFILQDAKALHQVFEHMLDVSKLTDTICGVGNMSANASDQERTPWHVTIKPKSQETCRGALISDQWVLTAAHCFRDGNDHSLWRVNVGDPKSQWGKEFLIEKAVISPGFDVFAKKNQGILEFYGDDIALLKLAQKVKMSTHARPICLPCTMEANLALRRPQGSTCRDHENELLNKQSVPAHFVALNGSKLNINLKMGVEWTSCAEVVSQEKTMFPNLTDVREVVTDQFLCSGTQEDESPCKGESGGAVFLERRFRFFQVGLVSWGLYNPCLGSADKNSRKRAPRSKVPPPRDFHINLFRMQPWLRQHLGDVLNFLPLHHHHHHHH

The target in the next test is T3, human C2 H451A (human, UniProt P06681 21-752).
T3 sequence: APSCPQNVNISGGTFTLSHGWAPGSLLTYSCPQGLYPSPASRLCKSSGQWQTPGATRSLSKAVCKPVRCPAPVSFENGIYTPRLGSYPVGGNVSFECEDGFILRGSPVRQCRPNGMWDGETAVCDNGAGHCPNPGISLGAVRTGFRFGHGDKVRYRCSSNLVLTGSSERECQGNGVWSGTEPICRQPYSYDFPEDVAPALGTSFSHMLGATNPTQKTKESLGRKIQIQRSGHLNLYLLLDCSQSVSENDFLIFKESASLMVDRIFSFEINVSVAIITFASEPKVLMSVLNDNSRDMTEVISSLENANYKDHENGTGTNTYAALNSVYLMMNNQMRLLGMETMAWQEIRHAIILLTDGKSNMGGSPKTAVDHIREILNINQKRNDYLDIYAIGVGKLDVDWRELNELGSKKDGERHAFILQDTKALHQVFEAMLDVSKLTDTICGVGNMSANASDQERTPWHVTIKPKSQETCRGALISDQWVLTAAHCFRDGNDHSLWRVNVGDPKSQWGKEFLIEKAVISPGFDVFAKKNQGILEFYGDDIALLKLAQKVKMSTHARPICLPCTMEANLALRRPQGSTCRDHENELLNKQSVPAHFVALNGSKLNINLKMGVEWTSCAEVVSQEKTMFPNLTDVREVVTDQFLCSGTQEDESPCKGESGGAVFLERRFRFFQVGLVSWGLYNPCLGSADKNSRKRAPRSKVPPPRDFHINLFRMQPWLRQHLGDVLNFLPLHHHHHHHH

The next test deals with T4, human C2 D269A (human, UniProt P06681 21-752).
T4 sequence: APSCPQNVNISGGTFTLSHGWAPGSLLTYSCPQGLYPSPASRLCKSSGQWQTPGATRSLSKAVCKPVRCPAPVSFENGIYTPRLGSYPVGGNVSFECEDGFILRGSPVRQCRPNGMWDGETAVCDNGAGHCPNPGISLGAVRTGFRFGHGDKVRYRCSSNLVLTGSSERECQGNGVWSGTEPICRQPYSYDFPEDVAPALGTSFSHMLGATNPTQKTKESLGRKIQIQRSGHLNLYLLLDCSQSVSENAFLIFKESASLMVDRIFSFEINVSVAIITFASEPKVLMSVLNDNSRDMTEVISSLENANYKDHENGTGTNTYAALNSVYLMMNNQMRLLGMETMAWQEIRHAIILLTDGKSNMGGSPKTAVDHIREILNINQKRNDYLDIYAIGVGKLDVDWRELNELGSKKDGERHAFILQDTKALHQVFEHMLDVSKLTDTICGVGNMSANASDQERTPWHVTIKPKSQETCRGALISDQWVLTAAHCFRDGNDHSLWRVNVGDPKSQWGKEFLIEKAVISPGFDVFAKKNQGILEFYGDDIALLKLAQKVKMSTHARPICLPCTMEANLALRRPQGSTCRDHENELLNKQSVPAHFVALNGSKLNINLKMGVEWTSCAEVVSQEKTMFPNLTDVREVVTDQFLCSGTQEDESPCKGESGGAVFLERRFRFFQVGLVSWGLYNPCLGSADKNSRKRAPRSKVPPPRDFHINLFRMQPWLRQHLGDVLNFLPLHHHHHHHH

This note sets out measurements from patent US20220332804A1 (CSL INNOVATION, published 2022).

B1: RF16-242 (antibody, human IgG4 S228P, lambda, V domains shown)
VH: EVQLLQSGAEVKKPGESLKISCKGSGYSFTSYWIGWVRQMPGKGLEWMGIIYPGDSDTRYSPSFQGQVTISADKSISTAYLQWSSLKASDTAMYYCARRGHYGDYFDYWGQGTLVTVSS
VL: SYELTQPPSVSVSPGQTARITCSGDALPKKYAYWYHQKSGQAPVLVIYEDRRRPSEIPERFSGSSSGTMATLTITGAQVEDEGVYFCYSRDRAGNQRVFGGGTQLTVLG
notes: pH-dependent anti-C2 antibody from a phage display library
Regarding B1, the Kd in the test with human C2 E267A stood at 12.1 nM; in the test with human C2 T442A, 18 nM; in the test with human C2 H451A, 21.3 nM; with human C2 D269A, 12.9 nM.
